Measured values: patent US20260248932A1, “CATIONIC AMPHIPHILIC POLYPEPTIDE FOR DELIVERING RNA AND METHOD FOR PREPARING THE SAME” (INHA UNIVERSITY RESEARCH AND BUSINESS FOUNDATION, priority 2023, published 2026)

Assay: Critical association concentration (CAC) by static light scattering
Assay type: physicochemical
Details: 10 mM HEPES buffer (pH 7.3), 0.001~4 mg/ml
Procedure: For the light scattered intensity of the polypeptide, the static light scattering was measured at 25° C. and a detection angle of 173° using Zetasizer Pro (Malvern Panalytical, Worcestershire, UK) equipped with a He—Ne laser (2=633 nm). Samples in 10 mM HEPES buffer (pH 7.3) were analyzed using a low-volume quartz cuvette (ZEN2112, Malvern Panalytic).
The critical association concentration (hereinafter referred to as CAC) of peptides measured by static light scattering was analyzed. […] Homopolypeptide (DDDDDDDD) used as the control group was well dissolved in buffer (pH 7.3), but no CAC appeared up to treatment concentration of 4 mg/mL.

With “DDDDDDDD [octameric homopolypeptide of L-Asp(DET) units used as the control group]” the “critical association concentration (CAC)” value was greater than 4 mg/mL.
